Data: paper PMC7550751, “Application of Force to a Syndecan-4 Containing Complex With Thy-1–αVβ3 Integrin Accelerates Neurite Retraction” (Frontiers in Molecular Biosciences, 2020)

T1: Commercially purified human Syndecan (ectodomain)-4-Fc, P31431
T1 chain: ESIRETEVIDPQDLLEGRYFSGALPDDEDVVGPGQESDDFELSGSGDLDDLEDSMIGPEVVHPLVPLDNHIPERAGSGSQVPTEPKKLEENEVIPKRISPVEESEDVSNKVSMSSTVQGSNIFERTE

T2: Thy-1-Fc wild type (UniProt P01831 20-131)
T2 construct: In the functional rows m1 stands for Thy-1 on the surface of CAD neuronal cells; also called Thy-1(RLD)-Fc; CD90; source: purified; obtained as previously reported (Schneider, 2000; Leyton et al., 2001)
T2 sequence (looked up): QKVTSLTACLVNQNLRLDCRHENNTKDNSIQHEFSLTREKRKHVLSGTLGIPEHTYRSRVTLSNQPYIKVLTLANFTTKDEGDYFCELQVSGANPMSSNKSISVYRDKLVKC

B1: Thy-1-Fc wild type, P01831 RLE (protein)
chain: QKVTSLTACLVNQNLRLECRHENNTKDNSIQHEFSLTREKRKHVLSGTLGIPEHTYRSRVTLSNQPYIKVLTLANFTTKDEGDYFCELQVSGANPMSSNKSISVYRDKLVKC
B2: Recombinant αVβ3-Fc integrin (Fc fusion)
chain 1: FNLDVDSPAEYSGPEGSYFGFAVDFFVPSASSRMFLLVGAPKANTTQPGIVEGGQVLKCDWSSTRRCQPIEFDATGNRDYAKDDPLEFKSHQWFGASVRSKQDKILACAPLYHWRTEMKQEREPVGTCFLQDGTKTVEYAPCRSQDIDADGQGFCQGGFSIDFTKADRVLLGGPGSFYWQGQLISDQVAEIVSKYDPNVYSIKYNNQLATRTAQAIFDDSYLGYSVAVGDFNGDGIDDFVSGVPRAARTLGMVYIYDGKNMSSLYNFTGEQMAAYFGFSVAATDINGDDYADVFIGAPLFMDRGSDGKLQEVGQVSVSLQRASGDFQTTKLNGFEVFARFGSAIAPLGDLDQDGFNDIAIAAPYGGEDKKGIVYIFNGRSTGLNAVPSQILEGQWAARSMPPSFGYSMKGATDIDKNGYPDLIVGAFGVDRAILYRARPVITVNAGLEVYPSILNQDNKTCSLPGTALKVSCFNVRFCLKADGKGVLPRKLNFQVELLLDKLKQKGAIRRALFLYSRSPSHSKNMTISRGGLMQCEELIAYLRDESEFRDKLTPITIFMEYRLDYRTAADTTGLQPILNQFTPANISRQAHILLDCGEDNVCKPKLEVSVDSDQKKIYIGDDNPLTLIVKAQNQGEGAYEAELIVSIPLQADFIGVVRNNEALARLSCAFKTENQTRQVVCDLGNPMKAGTQLLAGLRFSVHQQSEMDTSVKFDLQIQSSNLFDKVSPVVSHKVDLAVLAAVEIRGVSSPDHVFLPIPNWEHKENPETEEDVGPVVQHIYELRNNGPSSFSKAMLHLQWPYKYNNNTLLYILHYDIDGPMNCTSDMEINPLRIKISSLQTTEKNDTVAGQGERDHLITKRDLALSEGDIHTLGCGVAQCLKIVCQVGRLDRGKSAILYVKSLLWTETFMNKENQNHSYSLKSSASFNVIEFPYKNLPIEDITNSTLVTTNVTWGIQPAPMPV
chain 2: GPNICTTRGVSSCQQCLAVSPMCAWCSDEALPLGSPRCDLKENLLKDNCAPESIEFPVSEARVLEDRPLSDKGSGDSSQVTQVSPQRIALRLRPDDSKNFSIQVRQVEDYPVDIYYLMDLSYSMKDDLWSIQNLGTKLATQMRKLTSNLRIGFGAFVDKPVSPYMYISPPEALENPCYDMKTTCLPMFGYKHVLTLTDQVTRFNEEVKKQSVSRNRDAPEGGFDAIMQATVCDEKIGWRNDASHLLVFTTDAKTHIALDGRLAGIVQPNDGQCHVGSDNHYSASTTMDYPSLGLMTEKLSQKNINLIFAVTENVVNLYQNYSELIPGTTVGVLSMDSSNVLQLIVDAYGKIRSKVELEVRDLPEELSLSFNATCLNNEVIPGLKSCMGLKIGDTVSFSIEAKVRGCPQEKEKSFTIKPVGFKDSLIVQVTFDCDCACQAQAEPNSHRCNNGNGTFECGVCRCGPGWLGSQCECSEEDYRPSQQDECSPREGQPVCSQRGECLCGQCVCHSSDFGKITGKYCECDDFSCVRYKGEMCSGHGQCSCGDCLCDSDWTGYYCNCTTRTDTCMSSNGLLCSGRGKCECGSCVCIQPGSYGDTCEKCPTCPDACTFKKECVECKKFDRGALHDENTCNRYCRDEIESVKELKDTGKDAVNCTYKNEDDCVVRFQYYEDSSGKSILYVVEEPECPKGPD
notes: integrin αV, ectodomain; integrin β3, ectodomain; Construct: Burgos-Bravo et al., 2018; also called αVβ3 integrin; source: HEK293T, transiently transfected, secreted into serum-free medium; purified as published (Burgos-Bravo et al., 2018) for optical tweezers; used as medium in the neurite retraction assay
B3: Commercially purified human Syndecan (ectodomain)-4-Fc (Fc fusion, UniProt P31431 19-145, looked up)
chain: ESIRETEVIDPQDLLEGRYFSGALPDDEDVVGPGQESDDFELSGSGDLDDLEDSMIGPEVVHPLVPLDNHIPERAGSGSQVPTEPKKLEENEVIPKRISPVEESEDVSNKVSMSSTVQGSNIFERTE
notes: Syndecan-4, human, ectodomain; Heparan sulfate proteoglycan; also called Syndecan-4-Fc; Synd-4-Fc
B4: αVβ3-Fc + Syndecan-4-Fc (both on one bead) (complex)
chain 1: FNLDVDSPAEYSGPEGSYFGFAVDFFVPSASSRMFLLVGAPKANTTQPGIVEGGQVLKCDWSSTRRCQPIEFDATGNRDYAKDDPLEFKSHQWFGASVRSKQDKILACAPLYHWRTEMKQEREPVGTCFLQDGTKTVEYAPCRSQDIDADGQGFCQGGFSIDFTKADRVLLGGPGSFYWQGQLISDQVAEIVSKYDPNVYSIKYNNQLATRTAQAIFDDSYLGYSVAVGDFNGDGIDDFVSGVPRAARTLGMVYIYDGKNMSSLYNFTGEQMAAYFGFSVAATDINGDDYADVFIGAPLFMDRGSDGKLQEVGQVSVSLQRASGDFQTTKLNGFEVFARFGSAIAPLGDLDQDGFNDIAIAAPYGGEDKKGIVYIFNGRSTGLNAVPSQILEGQWAARSMPPSFGYSMKGATDIDKNGYPDLIVGAFGVDRAILYRARPVITVNAGLEVYPSILNQDNKTCSLPGTALKVSCFNVRFCLKADGKGVLPRKLNFQVELLLDKLKQKGAIRRALFLYSRSPSHSKNMTISRGGLMQCEELIAYLRDESEFRDKLTPITIFMEYRLDYRTAADTTGLQPILNQFTPANISRQAHILLDCGEDNVCKPKLEVSVDSDQKKIYIGDDNPLTLIVKAQNQGEGAYEAELIVSIPLQADFIGVVRNNEALARLSCAFKTENQTRQVVCDLGNPMKAGTQLLAGLRFSVHQQSEMDTSVKFDLQIQSSNLFDKVSPVVSHKVDLAVLAAVEIRGVSSPDHVFLPIPNWEHKENPETEEDVGPVVQHIYELRNNGPSSFSKAMLHLQWPYKYNNNTLLYILHYDIDGPMNCTSDMEINPLRIKISSLQTTEKNDTVAGQGERDHLITKRDLALSEGDIHTLGCGVAQCLKIVCQVGRLDRGKSAILYVKSLLWTETFMNKENQNHSYSLKSSASFNVIEFPYKNLPIEDITNSTLVTTNVTWGIQPAPMPV
chain 2: GPNICTTRGVSSCQQCLAVSPMCAWCSDEALPLGSPRCDLKENLLKDNCAPESIEFPVSEARVLEDRPLSDKGSGDSSQVTQVSPQRIALRLRPDDSKNFSIQVRQVEDYPVDIYYLMDLSYSMKDDLWSIQNLGTKLATQMRKLTSNLRIGFGAFVDKPVSPYMYISPPEALENPCYDMKTTCLPMFGYKHVLTLTDQVTRFNEEVKKQSVSRNRDAPEGGFDAIMQATVCDEKIGWRNDASHLLVFTTDAKTHIALDGRLAGIVQPNDGQCHVGSDNHYSASTTMDYPSLGLMTEKLSQKNINLIFAVTENVVNLYQNYSELIPGTTVGVLSMDSSNVLQLIVDAYGKIRSKVELEVRDLPEELSLSFNATCLNNEVIPGLKSCMGLKIGDTVSFSIEAKVRGCPQEKEKSFTIKPVGFKDSLIVQVTFDCDCACQAQAEPNSHRCNNGNGTFECGVCRCGPGWLGSQCECSEEDYRPSQQDECSPREGQPVCSQRGECLCGQCVCHSSDFGKITGKYCECDDFSCVRYKGEMCSGHGQCSCGDCLCDSDWTGYYCNCTTRTDTCMSSNGLLCSGRGKCECGSCVCIQPGSYGDTCEKCPTCPDACTFKKECVECKKFDRGALHDENTCNRYCRDEIESVKELKDTGKDAVNCTYKNEDDCVVRFQYYEDSSGKSILYVVEEPECPKGPD
chain 3: ESIRETEVIDPQDLLEGRYFSGALPDDEDVVGPGQESDDFELSGSGDLDDLEDSMIGPEVVHPLVPLDNHIPERAGSGSQVPTEPKKLEENEVIPKRISPVEESEDVSNKVSMSSTVQGSNIFERTE
notes: integrin αV, ectodomain, as in m5; integrin β3, ectodomain, as in m5; Syndecan-4, human, ectodomain, as in m6; Not a complex formed beforehand: m5 and m6 were put together on bead 2 and met Thy-1-Fc on bead 1; also called αVβ3 integrin + Syndecan-4; source: αVβ3-Fc: HEK293T, purified; Syndecan-4-Fc: commercially purified; both attached to one protein G-coated bead; copies: + +

What was measured:
[1] = biological target: Commercially purified human Syndecan (ectodomain)-4-Fc (UniProt P31431); assay: optical tweezers (miniTweezers) force-ramp adhesion frequency assay; settings: loading rate 10 pN/s; Hepes buffer (10 mM Hepes, pH 7.4) containing 100 mM NaCl and 1 mM MgCl2 at 25°C; parent: est. 0.79; read off a plot
[2] = biological target: T1, Commercially purified human Syndecan …; assay: as above; settings: chain shown with the change; loading rate 10 pN/s; Hepes buffer (10 mM Hepes, pH 7.4) containing 100 mM NaCl and 1 mM MgCl2 at 25°C; parent: est. 0.79; read off a plot
Thy-1-Fc wild type = biological target: T2, Thy-1-Fc wild type; assay: optical tweezers force spectroscopy (constant-force bond lifetime assay); miniTweezers; Thy-1-Fc on the 2.1 μm bead held by a micropipette; αVβ3-Fc, Syndecan-4-Fc or both on the 3.1 μm trapped bead (controls with TRAIL-R2-Fc added); constant forces 10, 20, 30, 40 and 50 pN; lifetimes fitted to the Bell model for values at zero force; 10 mM Hepes pH 7.4, 100 mM NaCl, 1 mM MgCl2, 25°C; settings: both partners purified

Molecule	bond lifetime at zero force (τ0) (Thy-1-Fc wild type) [s]	further results
Thy-1-Fc wild type (from UniProt P01831) AEAAA	–	other: adhesion frequency [1]: 0.4
B1	–	other: adhesion frequency [2]: 0.81
B2	6.79 ± 1.49	–
B3	3.06 ± 0.22	–
B4	11.6 ± 1.34	–
